Reference: paper PMC9482650, “Quantitative fragmentomics allow affinity mapping of interactomes” (Nature Communications, 2022)

T1: DFNB31_1, Q9P202
T1 sequence (Q9P202 135-233, limits assumed, looked up): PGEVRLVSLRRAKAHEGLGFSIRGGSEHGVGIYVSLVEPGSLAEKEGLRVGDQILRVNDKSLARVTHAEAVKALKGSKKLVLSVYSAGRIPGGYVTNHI

T2: PDZRN3_1, Q9UPQ7
T2 sequence (Q9UPQ7 244-349, limits assumed, looked up): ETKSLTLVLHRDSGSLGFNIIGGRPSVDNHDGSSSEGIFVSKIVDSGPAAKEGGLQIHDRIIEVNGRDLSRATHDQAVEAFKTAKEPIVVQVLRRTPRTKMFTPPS

T3: MPP2, Q14168
T3 sequence (Q14168 180-250, limits assumed, looked up): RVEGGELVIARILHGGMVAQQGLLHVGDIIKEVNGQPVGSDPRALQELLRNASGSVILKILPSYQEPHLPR

T4: TIAM2, Q8IVF5
T4 sequence (Q8IVF5 885-986, limits assumed, looked up): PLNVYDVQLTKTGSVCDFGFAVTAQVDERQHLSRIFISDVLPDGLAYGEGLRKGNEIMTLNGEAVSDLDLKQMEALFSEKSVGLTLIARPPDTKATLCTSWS

T5: PDZD2_2, O15018
T5 sequence (O15018 329-429, limits assumed, looked up): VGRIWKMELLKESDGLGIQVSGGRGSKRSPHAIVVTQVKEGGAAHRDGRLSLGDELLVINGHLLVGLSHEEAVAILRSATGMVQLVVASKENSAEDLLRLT

T6: DFNB31_2, Q9P202
T6 sequence (Q9P202 274-371, limits assumed, looked up): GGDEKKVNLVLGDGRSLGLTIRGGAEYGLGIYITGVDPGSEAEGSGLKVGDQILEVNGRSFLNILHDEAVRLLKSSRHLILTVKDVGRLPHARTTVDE

T7: GRIP1_2, Q9Y3R0
T7 sequence (Q9Y3R0 145-248, limits assumed, looked up): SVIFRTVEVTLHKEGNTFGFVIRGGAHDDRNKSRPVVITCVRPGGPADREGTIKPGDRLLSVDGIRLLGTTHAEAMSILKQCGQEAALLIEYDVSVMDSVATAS

T8: TX1BP3, O14907
T8 sequence (O14907 10-122, limits assumed, looked up): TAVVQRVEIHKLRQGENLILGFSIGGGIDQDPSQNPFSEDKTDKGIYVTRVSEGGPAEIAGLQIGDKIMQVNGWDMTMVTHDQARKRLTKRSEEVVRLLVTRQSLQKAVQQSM

T9: LRRC7, Q96NW7
T9 sequence (Q96NW7 1440-1537, limits assumed, looked up): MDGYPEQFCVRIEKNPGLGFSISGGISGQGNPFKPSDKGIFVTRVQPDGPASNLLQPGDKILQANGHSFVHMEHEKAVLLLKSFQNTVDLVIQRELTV

T10: SYNJ2BP, P57105
T10 sequence (P57105 8-110, limits assumed, looked up): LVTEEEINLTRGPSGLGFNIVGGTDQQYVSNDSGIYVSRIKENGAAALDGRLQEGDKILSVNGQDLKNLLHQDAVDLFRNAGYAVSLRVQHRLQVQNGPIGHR

T11: PCLO, Q9Y6V0
T11 sequence (Q9Y6V0 4491-4600, limits assumed, looked up): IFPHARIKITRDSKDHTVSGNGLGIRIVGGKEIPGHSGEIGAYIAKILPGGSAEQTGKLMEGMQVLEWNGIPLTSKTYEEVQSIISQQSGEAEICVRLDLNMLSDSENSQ

T12: FRMPD1, Q5SYB0
T12 sequence (Q5SYB0 52-145, limits assumed, looked up): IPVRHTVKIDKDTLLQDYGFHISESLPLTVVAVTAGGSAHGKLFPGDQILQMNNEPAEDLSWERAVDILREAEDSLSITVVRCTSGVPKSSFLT

T13: SNTG1, Q9NSN8
T13 sequence (Q9NSN8 52-150, limits assumed, looked up): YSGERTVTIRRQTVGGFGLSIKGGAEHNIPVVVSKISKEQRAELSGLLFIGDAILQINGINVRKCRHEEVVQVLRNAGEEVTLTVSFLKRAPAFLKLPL

T14: PTPN13_1, Q12923
T14 sequence (Q12923 1088-1188, limits assumed, looked up): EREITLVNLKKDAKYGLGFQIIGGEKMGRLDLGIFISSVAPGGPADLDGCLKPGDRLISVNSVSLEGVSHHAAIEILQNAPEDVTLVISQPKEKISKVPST

B1: PTH2R, P49190 (peptide)
chain: GCQGETEDVL

biological target: T1, DFNB31_1, Q9P202; test: holdup assay; design: key: below the threshold = too weak to quantify, mostly under pKd 3.1 to 4; conditions: plain residues with an end cap or a label only (N-terminal biotin on a linker: ado-ado)

Binder | pKd
B1 | below the threshold

biological target: T2, PDZRN3_1, Q9UPQ7; test: holdup assay; design: key: below the threshold = too weak to quantify, mostly under pKd 3.1 to 4; conditions: plain residues with an end cap or a label only (N-terminal biotin on a linker: ado-ado)

Binder | pKd
B1 | below the threshold

biological target: GRIP2_6, Q9C0E4; test: holdup assay; design: key: below the threshold = too weak to quantify, mostly under pKd 3.1 to 4; conditions: plain residues with an end cap or a label only (N-terminal biotin on a linker: ado-ado)
Sequence (Q9C0E4 648-740): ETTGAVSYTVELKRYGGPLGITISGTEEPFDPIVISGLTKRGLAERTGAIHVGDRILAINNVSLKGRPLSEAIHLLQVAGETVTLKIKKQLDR

Binder | pKd
B1 | below the threshold

biological target: GIPC2, Q8TF65; test: holdup assay; design: key: below the threshold = too weak to quantify, mostly under pKd 3.1 to 4; conditions: plain residues with an end cap or a label only (N-terminal biotin on a linker: ado-ado)
Sequence (Q8TF65 112-203): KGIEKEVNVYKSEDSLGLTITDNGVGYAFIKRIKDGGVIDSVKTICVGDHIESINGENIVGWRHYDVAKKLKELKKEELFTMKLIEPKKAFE

Binder | pKd
B1 | below the threshold

biological target: CASK, O14936; test: holdup assay; design: key: below the threshold = too weak to quantify, mostly under pKd 3.1 to 4; conditions: plain residues with an end cap or a label only (N-terminal biotin on a linker: ado-ado)
Sequence (O14936 487-570): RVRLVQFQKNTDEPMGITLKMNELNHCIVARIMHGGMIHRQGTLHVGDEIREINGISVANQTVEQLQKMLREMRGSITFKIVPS

Binder | pKd
B1 | below the threshold

biological target: T3, MPP2, Q14168; test: holdup assay; design: key: below the threshold = too weak to quantify, mostly under pKd 3.1 to 4; conditions: plain residues with an end cap or a label only (N-terminal biotin on a linker: ado-ado)

Binder | pKd
B1 | below the threshold

biological target: T4, TIAM2, Q8IVF5; test: holdup assay; design: key: below the threshold = too weak to quantify, mostly under pKd 3.1 to 4; conditions: plain residues with an end cap or a label only (N-terminal biotin on a linker: ado-ado)

Binder | pKd
B1 | below the threshold

biological target: T5, PDZD2_2, O15018; test: holdup assay; design: key: below the threshold = too weak to quantify, mostly under pKd 3.1 to 4; conditions: plain residues with an end cap or a label only (N-terminal biotin on a linker: ado-ado)

Binder | pKd
B1 | below the threshold

biological target: Inadl_3, Q8NI35; test: holdup assay; design: key: below the threshold = too weak to quantify, mostly under pKd 3.1 to 4; conditions: plain residues with an end cap or a label only (N-terminal biotin on a linker: ado-ado)
Sequence (Q8NI35 359-469): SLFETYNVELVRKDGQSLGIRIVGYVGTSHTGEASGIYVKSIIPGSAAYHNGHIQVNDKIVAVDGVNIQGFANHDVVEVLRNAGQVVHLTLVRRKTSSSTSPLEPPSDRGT

Binder | pKd
B1 | 3.92

biological target: T6, DFNB31_2, Q9P202; test: holdup assay; design: key: below the threshold = too weak to quantify, mostly under pKd 3.1 to 4; conditions: plain residues with an end cap or a label only (N-terminal biotin on a linker: ado-ado)

Binder | pKd
B1 | below the threshold

biological target: T7, GRIP1_2, Q9Y3R0; test: holdup assay; design: key: below the threshold = too weak to quantify, mostly under pKd 3.1 to 4; conditions: plain residues with an end cap or a label only (N-terminal biotin on a linker: ado-ado)

Binder | pKd
B1 | below the threshold

biological target: T8, TX1BP3, O14907; test: holdup assay; design: key: below the threshold = too weak to quantify, mostly under pKd 3.1 to 4; conditions: plain residues with an end cap or a label only (N-terminal biotin on a linker: ado-ado)

Binder | pKd
B1 | below the threshold

biological target: T9, LRRC7, Q96NW7; test: holdup assay; design: key: below the threshold = too weak to quantify, mostly under pKd 3.1 to 4; conditions: plain residues with an end cap or a label only (N-terminal biotin on a linker: ado-ado)

Binder | pKd
B1 | below the threshold

biological target: T10, SYNJ2BP, P57105; test: holdup assay; design: key: below the threshold = too weak to quantify, mostly under pKd 3.1 to 4; conditions: plain residues with an end cap or a label only (N-terminal biotin on a linker: ado-ado)

Binder | pKd
B1 | below the threshold

biological target: FRMPD4, Q14CM0; test: holdup assay; design: key: below the threshold = too weak to quantify, mostly under pKd 3.1 to 4; conditions: plain residues with an end cap or a label only (N-terminal biotin on a linker: ado-ado)
Sequence (Q14CM0 67-160): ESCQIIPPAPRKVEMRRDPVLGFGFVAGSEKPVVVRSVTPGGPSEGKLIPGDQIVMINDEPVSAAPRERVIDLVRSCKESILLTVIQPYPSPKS

Binder | pKd
B1 | 4.21

biological target: T11, PCLO, Q9Y6V0; test: holdup assay; design: key: below the threshold = too weak to quantify, mostly under pKd 3.1 to 4; conditions: plain residues with an end cap or a label only (N-terminal biotin on a linker: ado-ado)

Binder | pKd
B1 | below the threshold

biological target: SNX27, Q96L92; test: holdup assay; design: key: below the threshold = too weak to quantify, mostly under pKd 3.1 to 4; conditions: plain residues with an end cap or a label only (N-terminal biotin on a linker: ado-ado)

Binder | pKd
B1 | 4.52

biological target: T12, FRMPD1, Q5SYB0; test: holdup assay; design: key: below the threshold = too weak to quantify, mostly under pKd 3.1 to 4; conditions: plain residues with an end cap or a label only (N-terminal biotin on a linker: ado-ado)

Binder | pKd
B1 | below the threshold

biological target: FRMPD2_3, Q68DX3; test: holdup assay; design: key: below the threshold = too weak to quantify, mostly under pKd 3.1 to 4; conditions: plain residues with an end cap or a label only (N-terminal biotin on a linker: ado-ado)
Sequence (Q68DX3 1073-1166): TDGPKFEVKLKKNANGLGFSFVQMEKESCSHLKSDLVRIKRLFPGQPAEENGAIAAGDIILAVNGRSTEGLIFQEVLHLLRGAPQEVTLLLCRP

Binder | pKd
B1 | below the threshold

biological target: T13, SNTG1, Q9NSN8; test: holdup assay; design: key: below the threshold = too weak to quantify, mostly under pKd 3.1 to 4; conditions: plain residues with an end cap or a label only (N-terminal biotin on a linker: ado-ado)

Binder | pKd
B1 | below the threshold

biological target: DLG5_1, Q8TDM6; test: holdup assay; design: key: below the threshold = too weak to quantify, mostly under pKd 3.1 to 4; conditions: plain residues with an end cap or a label only (N-terminal biotin on a linker: ado-ado)
Sequence (Q8TDM6 617-713): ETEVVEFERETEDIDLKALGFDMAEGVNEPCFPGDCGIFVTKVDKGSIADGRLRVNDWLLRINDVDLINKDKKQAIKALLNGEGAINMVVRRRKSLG

Binder | pKd
B1 | below the threshold

biological target: MAGI1_2, Q96QZ7; test: holdup assay; design: key: below the threshold = too weak to quantify, mostly under pKd 3.1 to 4; conditions: plain residues with an end cap or a label only (N-terminal biotin on a linker: ado-ado)
Sequence (Q96QZ7 456-580): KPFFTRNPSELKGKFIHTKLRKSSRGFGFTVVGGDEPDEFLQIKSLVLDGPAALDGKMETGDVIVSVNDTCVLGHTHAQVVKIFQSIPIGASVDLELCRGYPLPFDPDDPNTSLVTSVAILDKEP

Binder | pKd
B1 | below the threshold

biological target: T14, PTPN13_1, Q12923; test: holdup assay; design: key: below the threshold = too weak to quantify, mostly under pKd 3.1 to 4; conditions: plain residues with an end cap or a label only (N-terminal biotin on a linker: ado-ado)

Binder | pKd
B1 | below the threshold
